Test results as given in patent publication US20220220200A1 (published 2022).
Values belong to the binder of their own block, whether it stands above or below them.

Assays:
[1] = biological target: T1, CD19 antigen (analyte of the Octet affinity assay) (UniProt P15391 20-291); assay: BLI
T1 chain: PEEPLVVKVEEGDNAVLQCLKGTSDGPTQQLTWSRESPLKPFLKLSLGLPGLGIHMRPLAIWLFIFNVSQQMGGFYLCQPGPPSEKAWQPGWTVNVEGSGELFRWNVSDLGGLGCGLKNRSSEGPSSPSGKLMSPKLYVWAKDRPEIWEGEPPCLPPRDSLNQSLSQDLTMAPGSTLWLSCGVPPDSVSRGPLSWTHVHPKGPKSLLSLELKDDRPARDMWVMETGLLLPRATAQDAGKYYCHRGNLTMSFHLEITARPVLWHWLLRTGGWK

[2] = biological target: FMC63; assay: BLI

- Kd [1]: 51.1 nM
B1: #62 anti-CD19 scFv-rFc (Fc fusion)
scFv: QSVVTQPPSVSGAPGQRVTISCTGSSSNIGAGYDVHWYQQLPGTAPKLLIYENTNRPSGVPDRFSGSKSGTSASLAITGLQAEDEADYYCQSYDSSLSGWRVFGGGTKLTVLGSRGGGGSGGGGSGGGGSLEMAEVQLVQSGAEVKKPGESLKISCKGSGYSFTNSWIGWVRQMPGKGLEWMGLIYPDDSDTRYSPSFQGQVTISADSAINTAYLQWSSLKASDTAMYYCARQSTYIYGGYYDTWGQGTLVTVSS

B2: CD19 antigen (receptor)
chain: T1 chain
- Kd [2]: 10.7 nM

- Kd [1]: 21.9 nM
B3: #78 anti-CD19 scFv-rFc (Fc fusion)
scFv: QAVLTQPPSVSEAPRQRVTISCSGSSSNIGNNAVSWYQQLPGKAPKLLIYYDDLLPSGVSDRFSGSKSGTSASLAISGLQSEDEADYYCAAWDDSLNGWVFGGGTKVTVLGSRGGGGSGGGGSGGGGSLEEVQLVQSGAEVKKPGESLKISCKGSGYSFTSYWIGWVRQMPGKGLEWMGIIYPGDSDTRYSPSFQGQVTISADKSISTAYLQWSSLKASDTAMYYCARLSYSWSSWYWDFWGQGTLVTVSS
